Laboratory results published in patent US9416187B2, “CD-20 specific antibodies and methods of employing same” (Duke University, dated 2016).

T1: mouse CD20 (mouse, UniProt P19437)
T1 sequence: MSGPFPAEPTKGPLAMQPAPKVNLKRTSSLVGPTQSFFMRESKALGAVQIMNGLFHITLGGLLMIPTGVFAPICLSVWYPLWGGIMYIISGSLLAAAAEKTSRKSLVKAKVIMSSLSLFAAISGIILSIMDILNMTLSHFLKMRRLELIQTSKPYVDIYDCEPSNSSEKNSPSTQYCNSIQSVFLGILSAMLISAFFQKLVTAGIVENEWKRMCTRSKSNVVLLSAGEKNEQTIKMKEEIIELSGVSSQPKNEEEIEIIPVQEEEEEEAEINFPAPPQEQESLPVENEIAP

T2: human CD20 (human, UniProt P11836)
T2 sequence: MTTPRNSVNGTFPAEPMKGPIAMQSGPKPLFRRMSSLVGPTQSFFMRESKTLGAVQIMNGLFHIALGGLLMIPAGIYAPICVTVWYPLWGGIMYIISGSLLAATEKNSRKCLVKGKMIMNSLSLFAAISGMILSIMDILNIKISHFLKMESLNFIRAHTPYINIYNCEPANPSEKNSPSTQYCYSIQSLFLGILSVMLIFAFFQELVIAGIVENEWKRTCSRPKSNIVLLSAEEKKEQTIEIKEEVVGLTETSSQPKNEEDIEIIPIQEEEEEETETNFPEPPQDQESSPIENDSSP


Assays:
mouse CD20 [1] = molecular target: T1, mouse CD20; assay: flow cytometry, spleen CD19+ B cells, control staining
human CD20 [2] = molecular target: T2, human CD20; assay: flow cytometry, Raji cells, saturating antibody
human CD20 [3] = molecular target: T2, human CD20; assay: flow cytometry, BJAB cells, saturating antibody
human CD20 [4] = molecular target: T2, human CD20; assay: flow cytometry, human blood B cells, saturating antibody
human CD20 [5] = molecular target: T2, human CD20; assay: flow cytometry, DHL-4 cells, saturating antibody
mouse CD20 [6] = molecular target: T1, mouse CD20; assay: flow cytometry, spleen CD19+ B cells, 0.5 µg/mL antibody

Row | Molecule | mean linear fluorescence intensity (mouse CD20 [1]) | mean linear fluorescence intensity (human CD20 [2]) | mean linear fluorescence intensity (human CD20 [3]) | mean linear fluorescence intensity (human CD20 [4]) | mean linear fluorescence intensity (human CD20 [5]) | B cell reactivity (mean linear fluorescence intensity) (mouse CD20 [6])
1 | isotype-matched control monoclonal antibodies | < 6 | – | – | – | – | –
2 | B9E9 anti-CD20 monoclonal antibody | – | 438 | 377 | 112 | 162 | –
3 | 1F5 anti-CD20 monoclonal antibody | – | 455 | 386 | 104 | 169 | –
4 | B1 anti-CD20 monoclonal antibody | – | 944 | 700 | 277 | 486 | –
5 | MB20-2 monoclonal antibody (antibody, V domains shown) VH: EVQLQESGPELVKPGASVKISCKASGYMFTDYYIKWVKQSHGKSLEWIGDINPNNGDTIYNQKFKGKATLTVDKSSNTAYMDLRSLTSEDSAVYYCARERFAYWGQGTLVTVSA VL: EIVLTQSPTTMAASPGEKITITCSVSSSIRSNYLHWYQQKPGFSPKLLIYRTSNLASGVPARFSGSGSGTSYSLTVATMEAEDVATYYCQQGSSIPLTFGAGTKLELKR | – | – | – | – | – | 209
6 | MB20-18 monoclonal antibody (antibody, V domains shown) VH: EVQLQESGLDLVKPGASVKISCKASGYTFTDYYMKWVKQSHGKSLDWIGDINPNNGDIIYNQKFEGKATLTVDKSSSTAYMELRSLTSEDSAVYYCARERFAYWGQGTLVTVSA VL: SIVMTQTPKFLLVSTGDRVTITCKASQTVTNDLAWYQQKPGQSPKLLIYYASNRYTGVPDRFTGSGYGTDFTFTINTVQAEDLAVYFCQQDYSSPLTFGAGTKLELKR | – | – | – | – | – | 729
7 | MB20-10 monoclonal antibody (antibody, V domains shown) VH: EVQLQESGPDLVKPGASVKISCKASGYTFTDYYMKWVKQSHGKSLDWIGDINPNNGDIIYNQKFEGKATLTVDKSSSTAYMELRSLTSEDSAVYYCARERFAYWGQGTLVTVSA VL: EIVLTQSPTTMAASPGEKITITCSVSSNIRSNYLHWYQQKPGFSPKLLIYRTSNLASGVPARFSGSGSGTSYSLTIGTMKAEDVATYYCQQGSSIPLTFGAGTKLELKR | – | – | – | – | – | 317
8 | MB20-8 monoclonal antibody (antibody, V domains shown) VH: EVQLQESGPDLVKPGASVKISCKASGYTFTDYYMKWVKQSHGKSLDWIGDINPNNGDIIYNQKFEGKATLTVDKSSSTAYMELRSLTSEDSAVYYCARERFAYWGQGTLVTVSA VL: EIVLTQSPTTMAASPGEKITITCSVSSNIRSNYLHWYQQKPGFSPKLLIYRTSNLASGVPARFSGSGSGTSYSLTIGTMKAEDVATYYCQQGSSIPLTFGAGTKLELKR | – | – | – | – | – | 240
9 | MB20-14 monoclonal antibody (antibody, V domains shown) VH: EVQLQESGPELVKPGASVKISCKASGYMFTDYYIKWVKQSHGKSLEWIGDINPNNGDTIYNQKFKGKATLTVDKSSNTAYMDLRILTSEDSAVYYCARERFAYWGQGTLVTVSA VL: EIVLTQSPTTMAASPGEKITITCSVSSSIRSNYLHWYQQKPGFSPKLLIYRTSNLASGVPARFSGSGSGTSYSLTVATMEAEDVATYYCQQGSSIPLTFGAGTKLELKR | – | – | – | – | – | 166
10 | MB20-7 monoclonal antibody (antibody, V domains shown) VH: EVQLQESGPDLVKPGASVKISCKASGYMFTDYYMKWVKQSHGKSLEWIGDINPNNGDTTYNQKFEGKATLTVDKSSSTAYMELRSLTSEDSAVYYCARERFAYWGQGTLVTVSA VL: ELVLTQSPTTKAASPGEKITITCSVSSSIRSNYLHWYQQRPGFSPKLLIYRTSNLASGVPARFSGSGSGTSYSLTIGTMEAEDVATYYCQQGSSLPLTFGAGTKLELKR | – | – | – | – | – | 525
11 | HB20-25 monoclonal antibody (antibody, V domains shown) VH: EVQLQESGAELVKPGASVKMSCKASGFRFTNYNLHWVKQTPGQGLEWIGAIYPGNGETSYNQKFKGKATLTADKSSSTAYMQLRSLTSGDSAVYYCARFYYYGSSYGAMDYWGQGTSVTVSS VL: MWGSVFNFSIVDARCDIQMTQSPASLSVSVGETVTITCRASENIYSNLAWYQQKQGKSPQLLVYAATNLADGVPSRFSGSGSGTQYSLKINSLQSEDFGSYYCQHFWGIPWTFGGGTKLEIKR | – | 1350 | 849 | 227 | 514 | –
12 | HB20-3 monoclonal antibody (antibody, V domains shown) VH: EVQLQESGAELVKPGASVKMSCKASGFTFTNYNMHWLKQTPGQGLEWIGAIYPENGDTSYNQKFKGKATLTADKASSTAYMHLSSLTSEDSAVYFCARFYYYGSYYGAMDYWGQGTSVTVSS VL: MWGSVFNFSIVGARCDIQMTQSPASLSASVGETVTITCRASGNIHNYLAWYQQKQGKSPQLLVYNAKTLADGVPSRFSGSGSGTQFSLKINSLQPEDFGSYYCQHFWSTPWTFGGGTKLEIKR | – | 2220 | 1200 | 469 | 765 | –
13 | HB20-4 monoclonal antibody (antibody, V domains shown) VH: EVQLQESGAELVKPGASVKMSCKASGFTFTNYNMHWVKQTPGQGLEWIGAIYPENGDTSYNQRFKGKATLTADKSSSTAYMHLSSLTSEDTAVYFCARFYYYGSYYGALDYWGQGTSVTVSS VL: MWGSVFNFSIVGARCDIQMTQSPASLSASVGETVTITCRASGSIHNYLAWYQQKLGKSPQLLVYNAKTLADGVPSRFSGSGSGTQFSLKINSLQPEDFGSYYCQHFWSIPWTFGGGTKLEIKR | – | 1580 | 1100 | 397 | 578 | –
14 | MB20-1 monoclonal antibody (antibody, V domains shown) VH: EVQLQESGGGLVQPGGSLKLSCAASGFTFSDYGMAWVRQAPRKGPEWVAFISNLAYSIYYADTVTGRFTISRENAKNTLYLEMSSLRSEDTAMYFCTRTGYYALDYWGQGTSVTVSS VL: NIMMTQSPSSLAVSAGEKVTMRCKSSQSVLYSSKRKNYLAWYQQKPGKSPTLLIYWASTRESGVPDRFTGSGSGTDFTLTITSVQAEDLAVYYCHQYLSSFTFGGGTKLEIKR | – | – | – | – | – | 69
15 | MB20-13 monoclonal antibody (antibody, V domains shown) VH: EVQLQESGGGLVQPGGSLKLSCAASGFTFSDYGMAWVRQAPRKGPEWVAFISNLAYSIYYADTVTGRFTISRENAKNTLYLEMSSLRSEDTAMYFCTRTGYYALDYWGQGTSVTVSS VL: EIVLAQSPTTTAASPGEKITITCSASSSITSNYLHWYQQKPGFSPKLLIYRTSNLASGVPARFSGSGSGTSYSLTIGTMEAEDVATYYCQQGSSKTLTFGAGTKLELKR | – | – | – | – | – | 603
